In the supplement of paper PMC6379048 one finds EC50 data, which are given here for two sequences.

The target of one data set is T1, TFIP11 (UniProt Q9UBB9).
T1 sequence: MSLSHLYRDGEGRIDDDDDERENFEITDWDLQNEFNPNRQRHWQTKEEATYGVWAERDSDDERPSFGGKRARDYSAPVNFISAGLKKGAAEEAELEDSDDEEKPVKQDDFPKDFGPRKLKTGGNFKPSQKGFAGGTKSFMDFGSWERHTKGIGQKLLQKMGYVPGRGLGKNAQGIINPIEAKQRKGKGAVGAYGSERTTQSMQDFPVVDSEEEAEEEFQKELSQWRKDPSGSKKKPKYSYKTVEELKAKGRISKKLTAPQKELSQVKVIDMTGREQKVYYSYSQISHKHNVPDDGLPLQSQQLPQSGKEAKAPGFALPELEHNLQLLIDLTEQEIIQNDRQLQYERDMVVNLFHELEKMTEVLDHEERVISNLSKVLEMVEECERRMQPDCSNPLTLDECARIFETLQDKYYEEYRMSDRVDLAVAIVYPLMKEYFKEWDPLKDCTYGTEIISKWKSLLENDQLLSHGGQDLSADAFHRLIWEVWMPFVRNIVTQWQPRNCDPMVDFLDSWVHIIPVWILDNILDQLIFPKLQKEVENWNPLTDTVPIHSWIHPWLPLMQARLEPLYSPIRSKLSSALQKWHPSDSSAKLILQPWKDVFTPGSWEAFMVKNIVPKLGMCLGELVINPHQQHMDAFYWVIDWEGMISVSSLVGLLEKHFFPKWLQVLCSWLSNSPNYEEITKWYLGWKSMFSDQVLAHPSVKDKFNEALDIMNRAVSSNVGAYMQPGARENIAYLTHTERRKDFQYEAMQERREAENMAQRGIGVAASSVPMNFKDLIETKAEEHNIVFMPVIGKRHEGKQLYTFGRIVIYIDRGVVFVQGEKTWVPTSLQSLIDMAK
Kind of data set: EC50 of free RNA motif oligo competing protein binding to immobilised probe. The method in brief: (§1)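 Free RNA oligos (0 nM to 30 μM) were pre-incubated with HEK293-FT lysate (2.5 mg protein/well) for 1 h at 4°C, followed by 30 min at 4°C with the same 5′-amino-C6 oligos coupled to NHS-Sepharose beads. Bound proteins were quantified by label-free LC-MS/MS and normalised to the control. EC50 was derived from a four-parameter log-logistic fit, and Kd was obtained by multiplying EC50 by a protein-dependent depletion factor.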

Another data set concerns the target T2, AQR (UniProt O60306).
T2 sequence: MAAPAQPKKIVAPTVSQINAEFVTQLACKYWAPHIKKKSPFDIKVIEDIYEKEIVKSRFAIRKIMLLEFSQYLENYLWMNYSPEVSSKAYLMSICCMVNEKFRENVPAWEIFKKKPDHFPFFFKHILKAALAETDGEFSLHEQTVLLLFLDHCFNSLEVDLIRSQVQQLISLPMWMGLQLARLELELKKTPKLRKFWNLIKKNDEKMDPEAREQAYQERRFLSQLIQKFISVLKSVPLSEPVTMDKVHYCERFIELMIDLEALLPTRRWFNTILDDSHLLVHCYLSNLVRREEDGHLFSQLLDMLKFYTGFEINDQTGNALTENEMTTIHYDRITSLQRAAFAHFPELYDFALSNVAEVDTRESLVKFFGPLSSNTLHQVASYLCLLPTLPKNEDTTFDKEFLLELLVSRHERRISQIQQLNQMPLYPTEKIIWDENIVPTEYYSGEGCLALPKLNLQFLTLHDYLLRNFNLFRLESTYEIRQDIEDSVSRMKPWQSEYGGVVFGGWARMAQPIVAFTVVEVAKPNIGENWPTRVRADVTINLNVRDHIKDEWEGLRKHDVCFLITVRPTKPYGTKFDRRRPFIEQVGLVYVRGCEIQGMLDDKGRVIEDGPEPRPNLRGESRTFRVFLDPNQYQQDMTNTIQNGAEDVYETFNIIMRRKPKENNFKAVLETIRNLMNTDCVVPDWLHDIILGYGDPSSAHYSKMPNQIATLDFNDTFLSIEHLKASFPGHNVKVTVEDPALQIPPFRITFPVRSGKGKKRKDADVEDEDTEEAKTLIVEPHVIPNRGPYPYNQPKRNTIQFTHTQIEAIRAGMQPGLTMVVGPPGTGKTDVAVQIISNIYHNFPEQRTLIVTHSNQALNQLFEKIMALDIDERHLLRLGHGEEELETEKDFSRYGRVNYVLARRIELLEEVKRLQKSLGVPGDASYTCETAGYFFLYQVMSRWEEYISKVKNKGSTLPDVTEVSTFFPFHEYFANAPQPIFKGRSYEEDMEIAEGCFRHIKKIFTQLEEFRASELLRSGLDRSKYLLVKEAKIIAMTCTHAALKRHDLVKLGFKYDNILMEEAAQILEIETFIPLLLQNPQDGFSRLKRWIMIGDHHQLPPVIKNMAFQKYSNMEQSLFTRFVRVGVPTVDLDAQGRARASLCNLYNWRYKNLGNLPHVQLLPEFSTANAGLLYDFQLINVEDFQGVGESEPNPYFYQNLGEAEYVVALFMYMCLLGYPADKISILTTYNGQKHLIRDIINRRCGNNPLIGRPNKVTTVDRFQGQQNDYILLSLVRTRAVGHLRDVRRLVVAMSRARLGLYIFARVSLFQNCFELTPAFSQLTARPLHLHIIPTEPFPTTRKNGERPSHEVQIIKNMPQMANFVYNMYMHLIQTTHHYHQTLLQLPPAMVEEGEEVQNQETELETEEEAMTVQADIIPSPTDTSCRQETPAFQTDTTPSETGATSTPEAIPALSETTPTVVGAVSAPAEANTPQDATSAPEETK
The description is as above. The method in brief: as §1

A word on the EC50: it is the concentration giving half of the maximal effect. Low readings indicate higher potency in that assay, high ones lower potency in that assay. For the sequence AAUAAA, the 50% effective concentration (EC50) with TFIP11 was 2350 nM; with AQR, 877 nM.
As to UAUUUAU, the EC50 with TFIP11 was 2390 nM; in the data set with AQR, 706 nM.
